Values quoted from earlier work, collected in publication PMC4203807.

Target: clathrin heavy chain N-terminal domain (Rattus norvegicus) (UniProt P11442)
Sequence of UniProt P11442 (P11442 1-363): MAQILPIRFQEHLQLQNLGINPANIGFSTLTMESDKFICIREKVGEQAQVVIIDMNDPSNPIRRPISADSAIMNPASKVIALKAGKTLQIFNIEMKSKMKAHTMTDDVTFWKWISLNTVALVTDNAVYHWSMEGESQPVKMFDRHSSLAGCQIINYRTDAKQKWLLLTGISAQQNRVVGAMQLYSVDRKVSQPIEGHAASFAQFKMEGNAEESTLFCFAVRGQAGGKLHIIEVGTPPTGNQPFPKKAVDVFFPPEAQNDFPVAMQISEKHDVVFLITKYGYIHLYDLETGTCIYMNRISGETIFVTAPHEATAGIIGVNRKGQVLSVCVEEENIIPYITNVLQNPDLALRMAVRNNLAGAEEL

AP180 623-680 (from UniProt Q05140)
Kd: 250 µM
